According to PMC5484413 (Nature structural & molecular biology, 2016):
Residue numbers refer to the chain shown, from its start. In names and notes the source's numbering stands.

B1: CED-3(1-220)-His6 (wild-type) (domain or fragment, C. elegans, UniProt P42573 1-220, looked up)
chain: MMRQDRRSLLERNIMMFSSHLKVDEILEVLIAKQVLNSDNGDMINSCGTVREKRREIVKAVQRRGDVAFDAFYDALRSTGHEGLAEVLEPLARSVDSNAVEFECPMSPASHRRSRALSPAGYTSPTRVHRDSVSSVSSFTSYQDIYSRARSRSRSRALHSSDRHNYSSPPVNAFPSQPSSANSSFTGCSSLGYSSSRNRSFSKASGPTQYIFHEEDMNFV
B2: CED-3(1-220)-His6 L30F (domain or fragment, C. elegans, UniProt P42573 1-220, looked up)
chain: B1 chain with L30F
B3: CED-3(1-220)-His6 G65R (domain or fragment, C. elegans, UniProt P42573 1-220, looked up)
chain: B1 chain with G65R
B4: CED-3(1-220)-His6 L27F (domain or fragment, C. elegans, UniProt P42573 1-220, looked up)
chain: B1 chain with L27F

Target: T1, GST-NPP-14 (C. elegans, UniProt Q17602 1-1390)
T1 sequence (looked up): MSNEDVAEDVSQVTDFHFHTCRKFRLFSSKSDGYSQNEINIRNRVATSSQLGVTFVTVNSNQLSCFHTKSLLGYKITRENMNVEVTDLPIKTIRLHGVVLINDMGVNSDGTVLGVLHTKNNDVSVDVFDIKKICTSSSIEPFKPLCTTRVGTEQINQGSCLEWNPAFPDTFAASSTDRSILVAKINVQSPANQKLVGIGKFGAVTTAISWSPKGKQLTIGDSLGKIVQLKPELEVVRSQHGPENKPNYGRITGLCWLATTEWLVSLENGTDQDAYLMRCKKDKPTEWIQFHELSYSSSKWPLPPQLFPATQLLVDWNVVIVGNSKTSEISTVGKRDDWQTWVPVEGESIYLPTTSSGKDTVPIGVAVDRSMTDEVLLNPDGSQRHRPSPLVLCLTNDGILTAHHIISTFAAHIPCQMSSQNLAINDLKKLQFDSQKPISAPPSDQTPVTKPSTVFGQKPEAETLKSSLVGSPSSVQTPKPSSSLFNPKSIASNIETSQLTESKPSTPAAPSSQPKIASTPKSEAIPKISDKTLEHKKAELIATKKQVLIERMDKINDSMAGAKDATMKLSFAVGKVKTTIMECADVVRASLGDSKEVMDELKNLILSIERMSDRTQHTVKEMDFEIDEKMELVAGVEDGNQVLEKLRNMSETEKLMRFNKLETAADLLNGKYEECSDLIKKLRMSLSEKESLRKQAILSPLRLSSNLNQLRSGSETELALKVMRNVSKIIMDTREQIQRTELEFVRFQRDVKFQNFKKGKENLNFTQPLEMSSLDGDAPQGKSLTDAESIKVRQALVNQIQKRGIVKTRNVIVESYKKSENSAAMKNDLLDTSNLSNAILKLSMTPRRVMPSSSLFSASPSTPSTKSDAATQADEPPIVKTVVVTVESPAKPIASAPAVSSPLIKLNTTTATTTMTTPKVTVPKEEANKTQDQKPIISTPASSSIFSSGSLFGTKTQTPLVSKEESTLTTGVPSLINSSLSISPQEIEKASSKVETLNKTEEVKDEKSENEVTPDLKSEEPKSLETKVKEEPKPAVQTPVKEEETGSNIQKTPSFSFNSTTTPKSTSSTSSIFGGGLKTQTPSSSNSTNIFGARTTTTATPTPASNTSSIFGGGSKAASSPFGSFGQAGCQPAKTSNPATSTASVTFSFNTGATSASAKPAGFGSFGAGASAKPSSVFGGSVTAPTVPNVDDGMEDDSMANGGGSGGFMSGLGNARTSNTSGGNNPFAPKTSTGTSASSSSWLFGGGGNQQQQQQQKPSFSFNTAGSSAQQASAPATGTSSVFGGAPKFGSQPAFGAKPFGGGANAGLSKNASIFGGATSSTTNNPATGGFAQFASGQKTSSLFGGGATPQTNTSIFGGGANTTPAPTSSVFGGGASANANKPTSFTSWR
Test: pull-down

Row | Binder | binding result
1 | B1 | binds
2 | B2 | binds
3 | B3 | binds
4 | B4 | binds
